From patent US20240317884A1, “METHOD FOR ALLOWING IMMUNE CELLS INFILTRATION IN TUMORS” (Alethia Biotherapeutics Inc., priority 2021, published 2024)
Values joined by “and” are separate entries in the source; they are usually repeats but may differ in a detail not shown here. Equal entries are not always repeated. “Also recorded” adds a separate entry of the source.

B1: murine 16B5: murine anti-clusterin 16B5 antibody used in mouse studies; VL SEQ ID NO:7, VH SEQ ID NO:8 (antibody, V domains shown)
VH: EVQLQQSGAELVKPGASVRLSCTTSGFNIKDIYMHWVKQRPEQGLEWIGRIDPAYGNTKYDPKFQGKATITADTSSNTAYLQLSSLTSEDTAVYYCARRYDTAMDYWGQGTSVTVSS
VL: DIVMSQSPSSLAVSAGEKVTMSCKSSQSLLNSRTRKNYLAWYQQKPGQSPKLLIYWASTRESGVPDRFTGSGSGTDFTLTISSVQAEDLAVYYCKQSYNLWTFGGGTKLEFK
modifications: Murine 16B5 VH; Murine 16B5 VL

Columns and labels:
4T1 primary tumors = assay: 4T1 model: CD45+ immune cells in primary tumors; format: in vivo, Balb/c mice; conditions: Balb/c, 5-week regimens (Groups 2, 4, 5), primary tumors excised at Day 16
Description: (§1) Five groups, each consisting of 10 female Balb/c mice were assigned to this study (see Table 5 below). All animals received subcutaneous implantation of 4T1 mouse mammary carcinoma cells in the 4th inguinal mammary gland. Treatment was initiated on the day of implantation (defined as Day 1). Animals from Group 1 (Gr. 1) received IP treatment of saline vehicle control twice a week for the duration of the study. Animals from Group 2 (Gr. 2) received 10 mg/kg of docetaxel weekly for five weeks by IP administration. Animals from Group 3 (Gr. 3) received 10 mg/kg of docetaxel weekly for two weeks and 10 mg/kg of AB-16B5, twice weekly for five weeks. Animals from Group 4 (Gr. 4) received 10 mg/kg of docetaxel weekly and 5 mg/kg of 16B5 twice weekly each over the course of a five weeks treatment. Animals from Group 5 (Gr. 5) received AB-16B5 twice weekly for five weeks. On Day 36, the primary tumors were excised and on Day 37, the animals were sacrificed and the number of grossly visible metastatic nodules on the surface of the lungs was counted.
The primary tumors excised at Day 16 post implantation, were processed with collagenase and hyaluronidase and immune cells were purified by positive selection using magnetic latex beads coated with an anti-CD45 antibody. […]

[1] = test system: 4T1 mouse mammary carcinoma cells; assay: 4T1 model: count of metastatic lung nodules; format: in vivo, Balb/c mice; conditions: Balb/c, treatment for 5 weeks (docetaxel 10 mg/kg IP 1X/week; AB-16B5 10 mg/kg IP 2X/week), vs saline control
Description: as §1

4T1 lung metastases = assay: 4T1 model: immunohistochemistry of lung metastases; format: in vivo; conditions: Balb/c mice, orthotopic 4T1; 10 mg/kg IP thrice a week; Day 36
Description: Balb/c mice were orthotopically implanted with 5×10^5 4T1 cells in the 4th mammary fat pad. Animals received IP saline treatment thrice weekly. The primary tumor was surgically removed at Day 16 post-implantation. The animals were sacrificed at Day 36 and the lungs were excised. Tissues were fixed in paraformaldehyde and processed for paraffin embedding. Tissue sections were probed with anti-mouse CD3, anti-mouse CD8 and anti-mouse B220 antibodies. […] Results presented in FIG. 1 indicate that the 4T1 lung metastases create an immune cold microenvironment which prevents the infiltration of B and T lymphocytes in tumors. Delineated regions indicate that CD3 and CD8 T lymphocytes are restricted in the tumor margin as a consequence of EMT.
Animals bearing 4T1 tumors were treated with the AB-16B5 antibody (murine 16B5) thrice a week IP at 10 mg/kg. The primary tumor was surgically removed at Day 16 post-implantation. The animals were sacrificed at Day 36 and the lungs were excised. Tissues were fixed in paraformaldehyde and processed for paraffin embedding. Tissue sections were probed with anti-mouse CD3, anti-mouse CD8 and anti-mouse B220 antibodies.

4T1 tumor cells = assay: INFγ secretion of tumor infiltrating lymphocyte cultures co-cultured with 4T1 cells (ELISA); format: cell-based, Balb/c mice; conditions: 100,000 lymphocytes from lung metastatic nodules with 100,000 4T1 cells overnight, individual animals, AB-16B5 10 mg/kg IP twice weekly ± docetaxel 10 mg/kg IP weekly
Description: Balb/c mice were orthotopically implanted with 5×10^5 4T1 cells in the 4th mammary fat pad. Animals received intraperitoneal (IP) AB-16B5 (murine 16B5) 10 mg/kg twice weekly in combination with IP docetaxel 10 mg/kg weekly (Group 15: animals 1501, 1502 and 1503) or IP AB-16B5 10 mg/kg twice weekly (Group 25: […]). The primary tumor was surgically removed at Day 16 post-implantation. The animals were sacrificed at Day 36 and the lungs were excised and each visible lung metastasis was carefully dissected. Each visible metastatic nodule, if any, was excised and processed for a rapid expansion of tumor infiltrating lymphocyte protocol. The metastatic nodules were sectioned into small pieces of 2-3 mm edge that were individually grown in 24 well plates containing culture medium supplemented with FBS, IL2, IL7, ITS (1,000 U/mL IL2, 2.0 ng/mL IL7 and 1× insulin-transferrin-selenium cocktail (Gibco 41400-045)).
After three weeks in culture, 100,000 cells were taken from each of the lymphocyte cultures (six cultures corresponding to three animals from Group 15 and three animals from Group 25) and placed in culture with 100,000 4T1 tumor cells. After overnight co-culture, the supernatant was recovered for INFγ quantification by ELISA.

Row | Molecule | CD45+ immune cells in primary tumors (4T1 primary tumors) | metastatic lung nodules / therapeutic effect on lung metastases [1] | infiltration of lung metastases with T cells (4T1 lung metastases) | lung metastases (number and size) (4T1 lung metastases) | plasmocytes penetration in tumors (4T1 lung metastases) | INFγ (4T1 tumor cells)
1 | CC(=O)O[C@@]12CO[C@@H]1C[C@H](O)[C@@]1(C)C(=O)[C@H](O)C3=C(C)[C@@H](OC(=O)[C@H](O)[C@@H](NC(=O)OC(C)(C)C)c4ccccc4)C[C@@](O)([C@@H](OC(=O)c4ccccc4)[C@H]21)C3(C)C [docetaxel] | very few CD45+ | as many metastatic lung nodules as the saline control group; also recorded: relatively ineffective | – | – | – | –
2 | B1 | more immune cells | less metastatic lung nodules | densely infiltrated with CD3 and CD8 T cells | fewer and much smaller lung metastases | evidence of plasmocytes penetration | 8538.8 pg/mL and 3770.0 pg/mL and 4538.8 pg/mL
